Assay results published in paper PMC7962585 (Cell, 2021).

B1: S2M28 IgG1 (antibody, V domains shown)
VH: EVQLVESGGGVVQPGRSLRLSCAASGFTFSSYGMHWVRQAPGKGLEWVTVIWYDGSNRYYADSVKGRFTISRDNSKNTLYLQMDSLRAEDTAVYYCARAVAGEWYFDYWGQGTLVTVSS
VL: SYELTQPPSVSVSPGQTARITCSGDALAKHYAYWYRQKPGQAPVLVIYKDSERPSGIPERFSGSSSGTTVTLTISGVQAEDEADYYCQSADSIGSSWVFGGGTKLTVL
B2: S2X333 IgG1 (antibody, V domains shown)
VH: VQLVESGGGVVQPGRSLRLSCAASGFTFSNYGMHWVRQAPGKGLEWVAVIWYDGSNKFYADSVKGRFTISRDNSKNSLYLQMNSLRAEDTAVYFCARAFPDSSSWSGFTIDYWGQGTLVTV
VL: YELTQPPSVSTARITCGGNNIERKSVHWCQQKPGQAPALVVYDDSDRPSGIPERFSGSNSGNTATLTISRVEAGDEADYYCQVWDSGSDQVIFGGGTKLT
B3: S2L28 IgG1 (antibody, V domains shown)
VH: EVQLVESGGGLVNPGGSLRLSCAASGFTFSDYTIHWVRQAPGKGLEWVSSISSSSNYIYYADSVKGRFTISRDNAKNSLSLQMNSLRAEDTAVYYCARDGNAYKWLLAENVRFDYWGQGTLVTVSS
VL: VTQPASVSGSPGQSITISCTGTSSDVGGYNYVSWYQQHPGKAPKLMIYDVSDRPSGVSNRFSGSKSGNTASLTISGLQAEDEADYYCSSYTSSSTPNWVFGGGTKLT

Each binder was assayed against full-length wild-type SARS-CoV-2 S (Severe acute respiratory syndrome …, UniProt P0DTC2) (assay: flow cytometry on cells).
B1: binds. B2: binds. B3: binds.
